Source: patent US20150344570A1 (published 2015)

T1: human FcγRIIb extracellular domain with C-terminal His tag (human, UniProt P31994 43-217)
T1 construct: extracellular domain; also called FcgRIIb; 2b; not shown: His tag attached to the C terminus
T1 sequence (looked up): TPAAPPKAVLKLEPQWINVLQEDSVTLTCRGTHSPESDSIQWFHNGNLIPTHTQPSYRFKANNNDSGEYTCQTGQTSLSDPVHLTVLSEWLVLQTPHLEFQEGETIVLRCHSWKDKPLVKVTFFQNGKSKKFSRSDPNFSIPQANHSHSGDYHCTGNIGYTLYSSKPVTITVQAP

B1: GpH7-B3 variant L328_19Q/GpL16-k0 (Ho Ab) (antibody, human IgG1, kappa)
heavy: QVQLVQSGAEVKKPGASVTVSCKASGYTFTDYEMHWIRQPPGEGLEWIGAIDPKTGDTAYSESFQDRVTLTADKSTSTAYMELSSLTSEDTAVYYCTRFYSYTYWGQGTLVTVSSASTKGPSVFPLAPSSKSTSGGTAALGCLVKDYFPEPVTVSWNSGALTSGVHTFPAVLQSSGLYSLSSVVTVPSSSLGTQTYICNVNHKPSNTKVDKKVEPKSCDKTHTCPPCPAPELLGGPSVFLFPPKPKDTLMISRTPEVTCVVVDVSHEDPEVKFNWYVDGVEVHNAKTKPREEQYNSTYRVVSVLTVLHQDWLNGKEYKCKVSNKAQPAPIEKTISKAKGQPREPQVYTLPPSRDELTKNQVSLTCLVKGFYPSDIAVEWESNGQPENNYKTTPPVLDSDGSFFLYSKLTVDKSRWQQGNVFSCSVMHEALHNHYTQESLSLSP
light: DIVMTQSPLSLPVTPGEPASISCQASESLVHSNRNTYLHWYLQKPGQSPQLLIYKVSNRFSGVPDRFSGSGSGTDFTLKISRVEAEDVGVYYCSQNTHVPPTFGQGTKVEIERTVAAPSVFIFPPSDEQLKSGTASVVCLLNNFYPREAKVQWKVDNALQSGNSQESVTEQDSKDSTYSLSSTLTLSKADYEKHKVYACEVTHQGLSSPVTKSFNRGEC
notes: Anti-glypican-3 IgG1; mutation in both H chains; also called L328Q homodimerized antibody
B2: GpH7-A5/GpH7-B3 variant L328_03V/GpL16-k0 (He Ab) (antibody, human IgG1, kappa)
heavy 1: not shown
heavy 2: not shown
light: B1 light
notes: Anti-glypican-3 IgG1; mutation only in the GpH7-B3-derived H chain; also called L328V heterodimerized antibody
B3: GpH7-B3 variant S239_08L/GpL16-k0 (Ho Ab) (antibody, human IgG1, kappa)
heavy: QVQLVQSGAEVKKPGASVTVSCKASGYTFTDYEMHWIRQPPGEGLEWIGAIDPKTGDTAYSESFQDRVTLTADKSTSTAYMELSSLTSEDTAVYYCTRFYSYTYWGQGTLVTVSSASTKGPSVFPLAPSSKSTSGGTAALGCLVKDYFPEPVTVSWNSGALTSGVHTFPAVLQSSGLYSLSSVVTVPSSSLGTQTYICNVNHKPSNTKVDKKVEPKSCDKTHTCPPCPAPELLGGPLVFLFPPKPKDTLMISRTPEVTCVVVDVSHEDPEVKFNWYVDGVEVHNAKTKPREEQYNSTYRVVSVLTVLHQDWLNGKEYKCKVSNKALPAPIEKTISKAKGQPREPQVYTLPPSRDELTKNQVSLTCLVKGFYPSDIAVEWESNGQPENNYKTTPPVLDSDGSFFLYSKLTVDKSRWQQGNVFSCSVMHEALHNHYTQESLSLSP
light: B1 light
notes: Anti-glypican-3 IgG1; mutation in both H chains; also called S239L homodimerized antibody
B4: GpH7-B3 variant S267_09D/GpL16-k0 (Ho Ab) (antibody, human IgG1, kappa)
heavy: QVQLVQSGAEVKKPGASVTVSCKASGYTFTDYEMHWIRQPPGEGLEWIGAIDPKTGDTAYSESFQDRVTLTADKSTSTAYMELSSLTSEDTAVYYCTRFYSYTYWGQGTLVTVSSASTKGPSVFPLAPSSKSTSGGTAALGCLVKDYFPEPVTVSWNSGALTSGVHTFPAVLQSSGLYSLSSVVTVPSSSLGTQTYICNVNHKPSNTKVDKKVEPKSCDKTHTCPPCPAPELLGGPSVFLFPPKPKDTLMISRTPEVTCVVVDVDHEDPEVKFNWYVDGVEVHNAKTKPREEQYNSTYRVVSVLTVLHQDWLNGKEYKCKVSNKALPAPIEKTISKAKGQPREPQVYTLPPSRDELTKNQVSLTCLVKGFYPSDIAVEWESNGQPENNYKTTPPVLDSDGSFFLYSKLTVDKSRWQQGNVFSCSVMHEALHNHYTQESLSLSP
light: B1 light
notes: Anti-glypican-3 IgG1; mutation in both H chains; also called S267D homodimerized antibody
B5: GpH7-A5/GpH7-B3 variant S298_08L/GpL16-k0 (He Ab) (antibody, human IgG1, kappa)
heavy 1: not shown
heavy 2: not shown
light: B1 light
notes: Anti-glypican-3 IgG1; mutation only in the GpH7-B3-derived H chain; also called S298L heterodimerized antibody
B6: GpH7-B3 variant P331_04F/GpL16-k0 (Ho Ab) (antibody, human IgG1, kappa)
heavy: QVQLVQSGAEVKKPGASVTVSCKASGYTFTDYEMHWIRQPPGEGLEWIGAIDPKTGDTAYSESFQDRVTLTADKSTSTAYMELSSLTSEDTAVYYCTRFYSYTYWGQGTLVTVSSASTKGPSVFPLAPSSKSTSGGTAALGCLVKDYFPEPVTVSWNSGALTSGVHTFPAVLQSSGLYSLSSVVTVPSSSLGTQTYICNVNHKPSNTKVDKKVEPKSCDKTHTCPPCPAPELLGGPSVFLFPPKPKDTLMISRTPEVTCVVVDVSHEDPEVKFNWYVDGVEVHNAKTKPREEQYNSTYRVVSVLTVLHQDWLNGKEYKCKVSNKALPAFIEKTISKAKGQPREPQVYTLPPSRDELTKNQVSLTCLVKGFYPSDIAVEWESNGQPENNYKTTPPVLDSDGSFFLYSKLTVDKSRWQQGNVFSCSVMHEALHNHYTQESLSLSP
light: B1 light
notes: Anti-glypican-3 IgG1; mutation in both H chains; also called P331F homodimerized antibody
B7: GpH7-B3 variant S267_02A/GpL16-k0 (Ho Ab) (antibody, human IgG1, kappa)
heavy: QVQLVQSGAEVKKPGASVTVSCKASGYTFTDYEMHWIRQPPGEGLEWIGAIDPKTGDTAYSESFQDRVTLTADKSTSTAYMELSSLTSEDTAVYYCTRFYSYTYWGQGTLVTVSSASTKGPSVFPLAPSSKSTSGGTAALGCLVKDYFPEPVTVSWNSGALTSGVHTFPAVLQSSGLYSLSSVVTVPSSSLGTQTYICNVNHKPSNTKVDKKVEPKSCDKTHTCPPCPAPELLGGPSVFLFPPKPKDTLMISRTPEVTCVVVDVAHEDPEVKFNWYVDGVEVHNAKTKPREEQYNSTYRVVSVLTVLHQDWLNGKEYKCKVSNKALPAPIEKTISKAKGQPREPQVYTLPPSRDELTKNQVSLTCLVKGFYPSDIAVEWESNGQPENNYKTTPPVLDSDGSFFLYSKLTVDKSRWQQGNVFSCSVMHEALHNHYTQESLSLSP
light: B1 light
notes: Anti-glypican-3 IgG1; mutation in both H chains; also called S267A homodimerized antibody
B8: GpH7-A5/GpH7-B3 variant S239_07I/GpL16-k0 (He Ab) (antibody, human IgG1, kappa)
heavy 1: not shown
heavy 2: not shown
light: B1 light
notes: Anti-glypican-3 IgG1; mutation only in the GpH7-B3-derived H chain; also called S239I heterodimerized antibody
B9: GpH7-A5/GpH7-B3 variant S267_10E/GpL16-k0 (He Ab) (antibody, human IgG1, kappa)
heavy 1: not shown
heavy 2: not shown
light: B1 light
notes: Anti-glypican-3 IgG1; mutation only in the GpH7-B3-derived H chain; also called S267E heterodimerized antibody
B10: GpH7-A5/GpH7-B3 variant S267_07I/GpL16-k0 (He Ab) (antibody, human IgG1, kappa)
heavy 1: not shown
heavy 2: not shown
light: B1 light
notes: Anti-glypican-3 IgG1; mutation only in the GpH7-B3-derived H chain; also called S267I heterodimerized antibody
B11: GpH7-B3 variant S239_07I/GpL16-k0 (Ho Ab) (antibody, human IgG1, kappa)
heavy: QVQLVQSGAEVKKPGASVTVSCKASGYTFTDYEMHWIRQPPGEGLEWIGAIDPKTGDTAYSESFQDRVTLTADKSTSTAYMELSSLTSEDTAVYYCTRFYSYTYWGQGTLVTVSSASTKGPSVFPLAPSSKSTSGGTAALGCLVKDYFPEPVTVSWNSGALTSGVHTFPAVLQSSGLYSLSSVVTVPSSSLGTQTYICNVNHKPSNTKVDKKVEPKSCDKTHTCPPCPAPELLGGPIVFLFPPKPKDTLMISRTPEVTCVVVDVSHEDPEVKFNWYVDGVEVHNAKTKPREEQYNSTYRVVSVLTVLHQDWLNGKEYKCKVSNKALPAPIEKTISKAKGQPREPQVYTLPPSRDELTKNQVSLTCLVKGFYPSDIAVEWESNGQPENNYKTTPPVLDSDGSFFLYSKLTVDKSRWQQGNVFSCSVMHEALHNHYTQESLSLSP
light: B1 light
notes: Anti-glypican-3 IgG1; mutation in both H chains; also called S239I homodimerized antibody
B12: GpH7-A5/GpH7-B3 variant L328_07I/GpL16-k0 (He Ab) (antibody, human IgG1, kappa)
heavy 1: not shown
heavy 2: not shown
light: B1 light
notes: Anti-glypican-3 IgG1; mutation only in the GpH7-B3-derived H chain; also called L328I heterodimerized antibody
B13: GpH7-B3 variant S337_10E/GpL16-k0 (Ho Ab) (antibody, human IgG1, kappa)
heavy: not shown
light: B1 light
notes: Anti-glypican-3 IgG1; mutation in both H chains; also called S337E homodimerized antibody
B14: GpH7-B3 variant Y300_19Q/GpL16-k0 (Ho Ab) (antibody, human IgG1, kappa)
heavy: not shown
light: B1 light
notes: Anti-glypican-3 IgG1; mutation in both H chains; also called Y300Q homodimerized antibody
B15: GpH7-A5/GpH7-B3 variant S239_08L/GpL16-k0 (He Ab) (antibody, human IgG1, kappa)
heavy 1: not shown
heavy 2: not shown
light: B1 light
notes: Anti-glypican-3 IgG1; mutation only in the GpH7-B3-derived H chain; also called S239L heterodimerized antibody
B16: GpH7-B3 variant P271_08L/GpL16-k0 (Ho Ab) (antibody, human IgG1, kappa)
heavy: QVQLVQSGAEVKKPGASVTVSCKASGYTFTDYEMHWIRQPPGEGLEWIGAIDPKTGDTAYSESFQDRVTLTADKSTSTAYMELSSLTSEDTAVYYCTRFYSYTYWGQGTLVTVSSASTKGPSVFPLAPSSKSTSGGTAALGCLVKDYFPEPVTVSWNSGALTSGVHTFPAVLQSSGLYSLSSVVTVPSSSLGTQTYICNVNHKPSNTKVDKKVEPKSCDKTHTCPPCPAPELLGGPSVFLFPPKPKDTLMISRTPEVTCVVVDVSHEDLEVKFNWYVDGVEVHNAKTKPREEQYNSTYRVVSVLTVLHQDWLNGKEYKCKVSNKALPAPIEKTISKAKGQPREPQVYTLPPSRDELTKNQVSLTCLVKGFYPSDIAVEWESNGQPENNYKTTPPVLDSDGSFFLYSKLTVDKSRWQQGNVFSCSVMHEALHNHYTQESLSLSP
light: B1 light
notes: Anti-glypican-3 IgG1; mutation in both H chains; also called P271L homodimerized antibody
B17: GpH7-A5/GpH7-B3 variant S239_09D/GpL16-k0 (He Ab) (antibody, human IgG1, kappa)
heavy 1: not shown
heavy 2: not shown
light: B1 light
notes: Anti-glypican-3 IgG1; mutation only in the GpH7-B3-derived H chain; also called S239D heterodimerized antibody
B18: GpH7-A5/GpH7-B3 variant L328_06M/GpL16-k0 (He Ab) (antibody, human IgG1, kappa)
heavy 1: not shown
heavy 2: not shown
light: B1 light
notes: Anti-glypican-3 IgG1; mutation only in the GpH7-B3-derived H chain; also called L328M heterodimerized antibody
B19: GpH7-A5/GpH7-B3 variant S267_09D/GpL16-k0 (He Ab) (antibody, human IgG1, kappa)
heavy 1: not shown
heavy 2: not shown
light: B1 light
notes: Anti-glypican-3 IgG1; mutation only in the GpH7-B3-derived H chain; also called S267D heterodimerized antibody
B20: GpH7-B3 variant T335_08L/GpL16-k0 (Ho Ab) (antibody, human IgG1, kappa)
heavy: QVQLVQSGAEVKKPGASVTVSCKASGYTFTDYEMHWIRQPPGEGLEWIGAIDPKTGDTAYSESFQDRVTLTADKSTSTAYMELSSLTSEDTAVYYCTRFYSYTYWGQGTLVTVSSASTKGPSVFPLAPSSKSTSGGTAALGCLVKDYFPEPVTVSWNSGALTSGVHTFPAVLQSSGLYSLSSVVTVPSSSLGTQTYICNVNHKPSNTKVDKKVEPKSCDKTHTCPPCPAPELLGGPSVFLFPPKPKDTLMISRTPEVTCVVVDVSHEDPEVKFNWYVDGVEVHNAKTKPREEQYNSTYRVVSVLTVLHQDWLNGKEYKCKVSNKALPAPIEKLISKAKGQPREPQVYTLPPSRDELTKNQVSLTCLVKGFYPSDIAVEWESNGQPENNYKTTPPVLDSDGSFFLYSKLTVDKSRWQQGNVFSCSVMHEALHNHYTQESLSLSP
light: B1 light
notes: Anti-glypican-3 IgG1; mutation in both H chains; also called T335L homodimerized antibody
B21: GpH7-A5/GpH7-B3 variant K334_16H/GpL16-k0 (He Ab) (antibody, human IgG1, kappa)
heavy 1: not shown
heavy 2: not shown
light: B1 light
notes: Anti-glypican-3 IgG1; mutation only in the GpH7-B3-derived H chain; also called K334H heterodimerized antibody
B22: GpH7-B3 variant P271_01G/GpL16-k0 (Ho Ab) (antibody, human IgG1, kappa)
heavy: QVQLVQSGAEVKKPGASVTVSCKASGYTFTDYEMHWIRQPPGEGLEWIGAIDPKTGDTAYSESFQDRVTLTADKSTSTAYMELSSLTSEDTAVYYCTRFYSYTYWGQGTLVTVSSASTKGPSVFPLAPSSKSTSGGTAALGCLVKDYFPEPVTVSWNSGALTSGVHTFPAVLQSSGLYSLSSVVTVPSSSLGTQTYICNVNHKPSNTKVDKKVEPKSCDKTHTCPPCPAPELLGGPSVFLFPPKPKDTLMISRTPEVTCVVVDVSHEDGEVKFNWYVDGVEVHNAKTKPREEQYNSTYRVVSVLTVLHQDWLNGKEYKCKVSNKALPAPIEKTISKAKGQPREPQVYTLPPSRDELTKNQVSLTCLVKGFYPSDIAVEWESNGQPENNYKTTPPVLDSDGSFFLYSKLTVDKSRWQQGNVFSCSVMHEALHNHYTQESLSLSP
light: B1 light
notes: Anti-glypican-3 IgG1; mutation in both H chains; also called P271G homodimerized antibody
B23: GpH7-B3 variant S267_03V/GpL16-k0 (Ho Ab) (antibody, human IgG1, kappa)
heavy: not shown
light: B1 light
notes: Anti-glypican-3 IgG1; mutation in both H chains; also called S267V homodimerized antibody
B24: GpH7-A5/GpH7-B3 variant L328_15Y/GpL16-k0 (He Ab) (antibody, human IgG1, kappa)
heavy 1: not shown
heavy 2: not shown
light: B1 light
notes: Anti-glypican-3 IgG1; mutation only in the GpH7-B3-derived H chain; also called L328Y heterodimerized antibody
B25: GpH7-B3 variant S267_07I/GpL16-k0 (Ho Ab) (antibody, human IgG1, kappa)
heavy: not shown
light: B1 light
notes: Anti-glypican-3 IgG1; mutation in both H chains; also called S267I homodimerized antibody
B26: GpH7-B3 variant S298_08L/GpL16-k0 (Ho Ab) (antibody, human IgG1, kappa)
heavy: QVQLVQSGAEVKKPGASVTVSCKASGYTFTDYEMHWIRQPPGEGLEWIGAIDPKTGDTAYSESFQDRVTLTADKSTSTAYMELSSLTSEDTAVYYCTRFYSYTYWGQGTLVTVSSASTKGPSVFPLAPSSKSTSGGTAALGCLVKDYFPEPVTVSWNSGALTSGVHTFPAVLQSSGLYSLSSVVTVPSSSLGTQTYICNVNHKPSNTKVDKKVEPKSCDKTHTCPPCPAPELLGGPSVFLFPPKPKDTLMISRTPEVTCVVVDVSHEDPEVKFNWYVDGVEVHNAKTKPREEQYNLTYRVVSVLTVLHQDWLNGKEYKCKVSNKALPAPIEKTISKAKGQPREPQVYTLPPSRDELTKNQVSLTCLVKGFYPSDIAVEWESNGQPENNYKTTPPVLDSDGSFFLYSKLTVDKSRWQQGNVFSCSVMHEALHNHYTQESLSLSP
light: B1 light
notes: Anti-glypican-3 IgG1; mutation in both H chains; also called S298L homodimerized antibody
B27: GpH7-B3 variant S337_09D/GpL16-k0 (Ho Ab) (antibody, human IgG1, kappa)
heavy: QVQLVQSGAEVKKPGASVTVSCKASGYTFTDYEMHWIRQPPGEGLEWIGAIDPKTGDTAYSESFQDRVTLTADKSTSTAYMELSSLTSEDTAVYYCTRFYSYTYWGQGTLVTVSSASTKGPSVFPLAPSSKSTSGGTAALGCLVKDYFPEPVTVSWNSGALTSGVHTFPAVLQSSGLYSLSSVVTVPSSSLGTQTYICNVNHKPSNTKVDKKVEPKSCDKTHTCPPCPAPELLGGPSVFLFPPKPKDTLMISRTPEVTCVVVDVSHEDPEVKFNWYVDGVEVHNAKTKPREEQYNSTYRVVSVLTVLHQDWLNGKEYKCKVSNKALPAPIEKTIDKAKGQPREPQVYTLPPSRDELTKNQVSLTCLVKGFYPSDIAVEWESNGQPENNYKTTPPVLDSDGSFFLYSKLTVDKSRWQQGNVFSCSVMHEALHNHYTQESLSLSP
light: B1 light
notes: Anti-glypican-3 IgG1; mutation in both H chains; also called S337D homodimerized antibody
B28: GpH7-B3 variant P238_08L/GpL16-k0 (Ho Ab) (antibody, human IgG1, kappa)
heavy: not shown
light: B1 light
notes: Anti-glypican-3 IgG1; mutation in both H chains; also called P238L homodimerized antibody

Target: T1, human FcγRIIb extracellular domain with …
Assay: SPR (Biacore T100), antibody captured on antigen peptide chip, FcγRIIb as analyte; relative binding
Experimental: Analysis of interaction between objective antibody and the FcγR was carried out using Biacore T100 (GE Healthcare). HBS-EP+ (GE Healthcare) was used as the running buffer, and the measurement temperature was set to 25° C. Chips produced by immobilizing the antigen peptide by the amine coupling method to a Series S Sencor Chip CM5 (GE Healthcare), or alternatively, chips produced by allowing preliminarily biotinylated antigen peptides to interact with and immobilize onto a Series S Sensor Chip SA (certified) (GE Healthcare) were used. Antibodies of interest were captured onto an antigen peptide-immobilized chip, and allowed to interact to each FcγR diluted with running buffer. To regenerate and repeatedly use the chip, the antibodies captured on the chip were washed off by reacting 10 mM glycine-HCl, pH 1.5.

Row | Binder | Ho/Con_2b | He/Con_2b
1 | B1 | 111 % of control GpH7-B3/GpL16-k0 (=100) | 
2 | B2 |  | 126 % of control GpH7-A5/GpH7-B3/GpL16-k0 (=100)
3 | B3 | 142 % of control GpH7-B3/GpL16-k0 (=100) | 
4 | B4 | 327 % of control GpH7-B3/GpL16-k0 (=100) | 
5 | B5 |  | 108 % of control GpH7-A5/GpH7-B3/GpL16-k0 (=100)
6 | B6 | 113 % of control GpH7-B3/GpL16-k0 (=100) | 
7 | B7 | 274 % of control GpH7-B3/GpL16-k0 (=100) | 
8 | B8 |  | 107 % of control GpH7-A5/GpH7-B3/GpL16-k0 (=100)
9 | B9 |  | 379 % of control GpH7-A5/GpH7-B3/GpL16-k0 (=100)
10 | B10 |  | 192 % of control GpH7-A5/GpH7-B3/GpL16-k0 (=100)
11 | B11 | 108 % of control GpH7-B3/GpL16-k0 (=100) | 
12 | B12 |  | 160 % of control GpH7-A5/GpH7-B3/GpL16-k0 (=100)
13 | B13 | 109 % of control GpH7-B3/GpL16-k0 (=100) | 
14 | B14 | 124 % of control GpH7-B3/GpL16-k0 (=100) | 
15 | B15 |  | 140 % of control GpH7-A5/GpH7-B3/GpL16-k0 (=100)
16 | B16 | 113 % of control GpH7-B3/GpL16-k0 (=100) | 
17 | B17 |  | 206 % of control GpH7-A5/GpH7-B3/GpL16-k0 (=100)
18 | B18 |  | 142 % of control GpH7-A5/GpH7-B3/GpL16-k0 (=100)
19 | B19 |  | 310 % of control GpH7-A5/GpH7-B3/GpL16-k0 (=100)
20 | B20 | 106 % of control GpH7-B3/GpL16-k0 (=100) | 
21 | B21 |  | 113 % of control GpH7-A5/GpH7-B3/GpL16-k0 (=100)
22 | B22 | 229 % of control GpH7-B3/GpL16-k0 (=100) | 
23 | B23 | 206 % of control GpH7-B3/GpL16-k0 (=100) | 
24 | B24 |  | 193 % of control GpH7-A5/GpH7-B3/GpL16-k0 (=100)
25 | B25 | 213 % of control GpH7-B3/GpL16-k0 (=100) | 
26 | B26 | 115 % of control GpH7-B3/GpL16-k0 (=100) | 
27 | B27 | 116 % of control GpH7-B3/GpL16-k0 (=100) | 
28 | B28 | 235 % of control GpH7-B3/GpL16-k0 (=100) | 
